Literature values as cited in US4183849A, “Therapeutic insulin preparation and a process for the production of a stable insulin preparation with protracted effect” (Nordisk Insulinlaboratorium, priority 1975, dated 1980).

Conditions: impurities of recrystallized insulin, stated as known

For proinsulin, the antigenicity is listed as “highly antigenic”.
